Test results as given in paper PMC4046564, “Reconstitution of dynein transport to the microtubule plus end by kinesin” (eLife, 2014).

B1: Bik1 (natural protein, S. cerevisiae, UniProt P11709 1-440, looked up)
chain: MDRYQRKIGCFIQIPNLGRGQLKYVGPVDTKAGMFAGVDLLANIGKNDGSFMGKKYFQTEYPQSGLFIQLQKVASLIEKASISQTSRRTTMEPLSIPKNRSIVRLTNQFSPMDDPKSPTPMRSFRITSRHSGNQQSMDQEASDHHQQQEFGYDNREDRMEVDSILSSDRKANHNTTSDWKPDNGHMNDLNSSEVTIELREAQLTIEKLQRKQLHYKRLLDDQRMVLEEVQPTFDRYEATIQEREKEIDHLKQQLELERRQQAKQKQFFDAENEQLLAVVSQLHEEIKENEERNLSHNQPTGANEDVELLKKQLEQLRNIEDQFELHKTKWAKEREQLKMHNDSLSKEYQNLSKELFLTKPQDSSSEEVASLTKKLEEANEKIKQLEQAQAQTAVESLPIFDPPAPVDTTAGRQQWCEHCDTMGHNTAECPHHNPDNQQFF
notes: Bik1 (Clip170 homolog), S. cerevisiae; open-reading frame amplified from genomic DNA; Eluted from Ni-NTA with imidazole; no removal of the tag is told; also called Clip170 homolog; source: sf21 insect cells (baculovirus), purified (Ni-NTA)
B2: Bim1 (natural protein, S. cerevisiae, UniProt P40013 1-344, looked up)
chain: MSAGIGESRTELLTWLNGLLNLNYKKIEECGTGAAYCQIMDSIYGDLPMNRVKFNATAEYEFQTNYKILQSCFSRHGIEKTVYVDKLIRCKFQDNLEFLQWLKKHWIRHKDESVYDPDARRKYRPIITNNSATKPRTVSNPTTAKRSSSTGTGSAMSGGLATRHSSLGINGSRKTSVTQGQLVAIQAELTKSQETIGSLNEEIEQYKGTVSTLEIEREFYFNKLRDIEILVHTTQDLINEGVYKFNDETITGHGNGNGGALLRFVKKVESILYATAEGFEMNDGEDELNDKNLGEHGTVPNQGGYANSNGEVNGNEGSNHDVIMQNDEGEVGVSNNLIIDEETF
notes: Bim1 (EB1 homolog), S. cerevisiae; open-reading frame amplified from genomic DNA; also called EB1 homolog; source: E. coli BL-21(DE3), purified (Strep-Tactin, TEV release); not shown: His6, N-terminal, cleaved; Strep, N-terminal, cleaved
B3: Bik1ΔC (domain or fragment, S. cerevisiae, UniProt P11709 1-400, looked up)
chain: MDRYQRKIGCFIQIPNLGRGQLKYVGPVDTKAGMFAGVDLLANIGKNDGSFMGKKYFQTEYPQSGLFIQLQKVASLIEKASISQTSRRTTMEPLSIPKNRSIVRLTNQFSPMDDPKSPTPMRSFRITSRHSGNQQSMDQEASDHHQQQEFGYDNREDRMEVDSILSSDRKANHNTTSDWKPDNGHMNDLNSSEVTIELREAQLTIEKLQRKQLHYKRLLDDQRMVLEEVQPTFDRYEATIQEREKEIDHLKQQLELERRQQAKQKQFFDAENEQLLAVVSQLHEEIKENEERNLSHNQPTGANEDVELLKKQLEQLRNIEDQFELHKTKWAKEREQLKMHNDSLSKEYQNLSKELFLTKPQDSSSEEVASLTKKLEEANEKIKQLEQAQAQTAVESLPIF
notes: Bik1 (Clip170 homolog), S. cerevisiae, lacking the C-terminal 40 amino acids (zinc knuckle domain); also called Bik1ΔC construct lacking the C-terminal 40 amino acids; source: sf21 insect cells (baculovirus), purified (Ni-NTA)

Legend:
Kip2 (S. cerevisiae) = Kip2 (S. cerevisiae) (UniProt P28743)
Kip2 = molecular target: T1, Kip2 (S. cerevisiae, UniProt P28743 1-706, differently phosphorylated forms (doublet on SDS-PAGE; not treated with phosphatase); Atto647N on the SNAP tag in the TIRF assays); assay: SEC; Superose 6 PC 3.2/30; indicated combinations of purified protein (100 picomoles each) pre-incubated at 1.1 μM for 10 min at 4°C; 50 mM Tris-HCl pH 8.0, 150 mM potassium acetate, 2 mM magnesium acetate, 1 mM EGTA, 5% glycerol, 1 mM DTT; fractions analysed by SDS-PAGE; settings: both partners purified
T1 construct: kinesin Kip2, S. cerevisiae; genomic kip2 locus modified by homologous recombination (8HIS-ZZ-Tev-KIP2-g-FLAG-ga-SNAP); also called Kip2-Atto647; kinesin; source: S. cerevisiae (strain RPY1099, GAL1 promoter), purified (IgG sepharose via ZZ tag, TEV release; for SEC Ni-NTA then IgG sepharose); not shown: His8, N-terminal, cleaved; ZZ, N-terminal, cleaved; SNAP, C-terminal, kept
T1 sequence (looked up): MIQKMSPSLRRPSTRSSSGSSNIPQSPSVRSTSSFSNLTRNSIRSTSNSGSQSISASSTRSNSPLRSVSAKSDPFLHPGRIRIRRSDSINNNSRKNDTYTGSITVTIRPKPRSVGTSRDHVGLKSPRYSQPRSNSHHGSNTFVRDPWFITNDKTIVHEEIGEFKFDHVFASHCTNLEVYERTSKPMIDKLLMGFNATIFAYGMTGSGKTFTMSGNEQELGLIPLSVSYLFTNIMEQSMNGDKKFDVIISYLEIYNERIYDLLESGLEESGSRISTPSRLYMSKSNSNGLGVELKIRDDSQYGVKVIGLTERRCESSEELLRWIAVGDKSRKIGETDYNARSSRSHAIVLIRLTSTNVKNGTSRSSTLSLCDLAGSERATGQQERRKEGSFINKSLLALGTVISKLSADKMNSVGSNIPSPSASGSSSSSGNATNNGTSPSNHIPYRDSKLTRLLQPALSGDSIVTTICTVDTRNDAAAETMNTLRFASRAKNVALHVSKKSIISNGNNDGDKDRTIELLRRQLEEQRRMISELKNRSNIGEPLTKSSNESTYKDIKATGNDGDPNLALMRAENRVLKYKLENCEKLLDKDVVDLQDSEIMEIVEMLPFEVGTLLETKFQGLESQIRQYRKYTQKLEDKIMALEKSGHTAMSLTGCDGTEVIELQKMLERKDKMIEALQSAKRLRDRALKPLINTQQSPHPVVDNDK

Bik1ΔC = molecular target: B3; assay: as above; settings: both partners purified
Bik1 = molecular target: B1; assay: as above; settings: both partners purified

GST-dynein_(331 kDa), P36022 1-4092
direction of dynein movements on dynamic microtubules (TIRF) with Lis1, Bik1, Bim1 and Kip2: proportion directed to the plus end; without Lis1 or Bik1 dynein moved to the minus end (Kip2 (S. cerevisiae)): 90%

B1
binding result (Kip2): binds

B2
binding result (Bik1ΔC): binds | binding result (Bik1): binds

B3
binding result (Kip2): binds
